# Measurements taken from doi:10.1101/2024.09.05.611129 (bioRxiv, 2024).
# Biological target: the molecule itself
# Experiment: SEC
protein,measurement,value
Mycobacterium tuberculosis catalase-peroxidase KatG (enzyme) MPEQHPPITETTTGAASNGCPVVGHMKYPVEGGGNQDWWPNRLNLKVLHQNPAVADPMGAAFDYAAEVATIDVDALTRDIEEVMTTSQPWWPADYGHYGPLFIRMAWHAAGTYRIHDGRGGAGGGMQRFAPLNSWPDNASLDKARRLLWPVKKKYGKKLSWADLIVFAGNCALESMGFKTFGFGFGRVDQWEPDEVYWGKEATWLGDERYSGKRDLENPLAAVQMGLIYVNPEGPNGNPDPMAAAVDIRETFRRMAMNDVETAALIVGGHTFGKTHGAGPADLVGPEPEAAPLEQMGLGWKSSYGTGTGKDAITSGIEVVWTNTPTKWDNSFLEILYGYEWELTKSPAGAWQYTAKDGAGAGTIPDPFGGPGRSPTMLATDLSLRVDPIYERITRRWLEHPEELADEFAKAWYKLIHRDMGPVARYLGPLVPKQTLLWQDPVPAVSHDLVGEAEIASLKSQIRASGLTVSQLVSTAWAAASSFRGSDKRGGANGGRIRLQPQVGWEVNDPDGDLRKVIRTLEEIQESFNSAAPGNIKVSFADLVVLGGCAAIEKAAKAAGHNITVPFTPGRTDASQEQTDVESFAVLEPKADGFRNYLGKGNPLPAEYMLLDKANLLTLSAPEMTVLVGGLRVLGANYKRLPLGVFTEASESLTNDFFVNLLDMGITWEPSPADDGTYQGKDGSGKVKWTGSRVDLVFGSNSELRALVEVYGADDAQPKFVQDFVAAWDKVMNLDRFDVR,stoichiometry N,2
